The text below walks through data of EP1019524B1.

The target of the assay is HeLa cell PP1α (cellular PP1α in S10 fractions of HeLa cells) (human) (UniProt P62136). Put plainly: cell-based or functional assay.
HeLa cell PP1α (cellular PP1α in S10 fractions of HeLa cells) (human), sequence (P62136 2-330): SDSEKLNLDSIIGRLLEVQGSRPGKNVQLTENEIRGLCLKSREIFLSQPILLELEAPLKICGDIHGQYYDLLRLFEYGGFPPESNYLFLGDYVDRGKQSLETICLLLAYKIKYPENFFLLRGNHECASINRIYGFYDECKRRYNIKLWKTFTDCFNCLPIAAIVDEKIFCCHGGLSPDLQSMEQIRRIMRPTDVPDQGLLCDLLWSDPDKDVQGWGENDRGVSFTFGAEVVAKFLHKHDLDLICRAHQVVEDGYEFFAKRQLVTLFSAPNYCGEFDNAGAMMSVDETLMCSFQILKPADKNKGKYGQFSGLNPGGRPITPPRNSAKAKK

Regarding “γ134.5 protein of HSV-1(F), from lysates of HSV-1(F) infected cells (from UniProt P36313 1-248)”, the 32P-phosphorylase phosphatase activity of HSV-1(F)-infected cells against mock-infected cells (fold of mock-infected cells) amounted to 0.5 and the eIF-2(α32P) phosphatase activity of S10 fractions of wild type infected HeLa cells against mock-infected cells came out at 3000 fold.
Regarding “γ134.5-MyD116 chimeric protein expressed by recombinant virus R8300 (from UniProt P36313 1-175; P17564 540-657)”, the eIF-2(α32P) phosphatase activity of S10 fractions of R8300 infected HeLa cells against mock-infected cells amounted to 50 fold.
protein phosphatase Inhibitor 2 gave a 50% reduction in the rate of dephosphorylation of eIF-2(α32P) by the S10 fraction from R8300 virus-infected cells of 120 µg/mL and a 50% reduction in the rate of dephosphorylation of eIF-2(α32P) by the S10 fraction from wild-type virus-infected cells of 90 µg/mL.
